Measurements published in publication PMC11543927, “Subtleties in Clathrin heavy chain binding boxes provide selectivity among adaptor proteins of budding yeast” (Nature Communications, 2024).
Blank lines part the entries; values can stand above or below the molecule they belong to.

B2: Saccharomyces cerevisiae clathrin heavy chain N-terminal domain (ScChc-NTD, 1-369) (domain or fragment, UniProt P22137 1-369, looked up)
chain: MSDLPIEFTELVDLMSLGISPQFLDFRSTTFESDHFVTVRETKDGTNSVAIVDLAKGNEVTRKNMGGDSAIMHPSQMVISVRANGTIVQIFNLETKSKLKSFTLDEPVIFWRWLSETTLGFVTARSILTSNVFDGNVNAKPQLLTLRHANLNNTQIINFVANKNLDWFAVVGILQENGRIAGRIQLFSKQRNISQAIDGHVAIFTNILLEGNGSTPVQVFVTGNRNATTGAGELRIIEIDHDASLPSQYQKETTDIFFPPDATNDFPIAVQVSEKYGIIYLLTKYGFIHLYELETGTNLFVNRITAESVFTAAPYNHENGIACINKKGQVLAVEISTSQIVPYILNKLSNVALALIVATRGGLPGADDL
notes: Clathrin heavy chain N-terminal domain, Saccharomyces cerevisiae, residues 1-369; pETM-30 vector with a His-GST tag and a TEV cleavage site; also called WT NTD; source: E. coli BL21 (DE3), purified (Ni-NTA, TEV cleavage, reverse Ni-NTA, SEC)

Tests used:
ScChc-NTD = molecular target: T1, ScChc-NTD (Saccharomyces cerevisiae, UniProt P22137); assay: Native MS titration of Ent5.1, 1.75 µM protein in 200 mM NH4AcO pH 9.0; type: binding; details: global non-linear square fitting of the five measured fractions, four independent sites with the same affinity; read-out: microscopic KD
T1 construct: N-terminal domain (ScChc-NTD, 1–369) was cloned in a pETM-30 vector; His-GST (TEV site); made in house; host or cells: E. coli BL21 (DE3)
T1 sequence (P22137 1-369): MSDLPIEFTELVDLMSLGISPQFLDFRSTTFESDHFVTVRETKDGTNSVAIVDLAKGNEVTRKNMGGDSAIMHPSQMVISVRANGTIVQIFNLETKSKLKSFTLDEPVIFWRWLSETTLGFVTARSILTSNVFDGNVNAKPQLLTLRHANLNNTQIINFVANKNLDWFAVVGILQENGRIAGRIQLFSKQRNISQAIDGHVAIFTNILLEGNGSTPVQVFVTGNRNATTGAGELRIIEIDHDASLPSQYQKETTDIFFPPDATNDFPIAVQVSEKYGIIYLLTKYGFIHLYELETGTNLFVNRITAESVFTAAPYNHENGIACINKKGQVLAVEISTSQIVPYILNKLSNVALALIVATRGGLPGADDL
Method: ScChc-NTD stocks were doubly buffer-exchanged into a 200 mM NH4AcO, pH 9.0 buffered solution by two subsequent runs on P6 biospins (BioRad); the protein concentration was determined photometrically (ε280 nm = 26,930 M^−1cm^−1) and the protein was diluted into 20 µl aliquots. Final samples contained 1.75 µM protein. Samples for competition experiments were prepared similarly for constant (20 µM) Ent1 and varying (0, 5, 10, 15, 20, 25, 30 and 50 µM) Ent2 concentrations and vice versa. Mass measurements. Samples were placed into gold-coated capillaries and after ionization by nano-electrospraying mass-measured in a QE-UHMR orbitrap mass spectrometer (Thermo Fisher Scientific) as follows: 1. establishment of a (“wet”) spray using a capillary voltage of 1.10-1.15 kV but with the syringe locked as to guarantee a relatively high backing pressure. 2. […] By doing so, success in the sense of as least as possible unspecific clusters could be easily monitored by spectrum appearance and distinct downward steps of the total ion current (TIC). […]
The processed output of the native MS interaction data consists of the relative fractions of CHC bound to different numbers of peptides. In this case, we detected CHC bound to up to four peptides. […]
To average the measured fractions related to similar free ligand concentrations, we used log-spaced intervals with base 1.1 starting at 0.011 μM. […]

[1] = molecular target: B2; assay: nanoDSF thermal shift; ScChc-NTD 8 µM incubated with eleven peptide concentrations (1:1 dilutions) for 15 min, heated 20-95 °C at 1 °C/min, SEC buffer (50 mM Tris pH 9, 150 mM NaCl, 0.5 mM TCEP); apparent KD from the Tm shift model, one to one binding assumed, global average over all boxes; details: both partners purified
[2] = molecular target: the molecule itself; assay: crystal structure; sitting drop; NTD incubated with excess peptide (between 23 and 40 fold) for 15 min at room temperature (21 °C) before setting up plates
[3] = molecular target: T2, Chc-mScarlet Clathrin and Arrestin box mutant (Cla+Arr) (Saccharomyces cerevisiae, UniProt P22137 1-1653, K63E | I87D | Q89A | K98E | Q195A | I197T | K251E); assay: FRET or BRET; acceptor photobleaching FRET in living yeast cells at endocytic patches stalled with Latrunculin A, donor mNeonGreen on Ent1/Ent2, acceptor mScarlet on Chc, 21 °C; trimmed mean FRET efficiency; details: partners not purified
T2 construct: Clathrin heavy chain, Saccharomyces cerevisiae, the ORF of CHC1 fused in the 3' with mScarlet, Clathrin and Arrestin box mutant; source: S. cerevisiae MK100, mutated plasmid pRS315-5'UTR CHC-mScarlet, endogenous CHC1 knocked out, in living cells; not shown: mScarlet, C-terminal, kept

[4] = molecular target: T3, Clathrin heavy chain fused to mScarlet (Chc-mScarlet), wild type (Saccharomyces cerevisiae, UniProt P22137 1-1653); assay: as above; details: partners not purified
T3 construct: Clathrin heavy chain, Saccharomyces cerevisiae, the ORF of CHC1 fused in the 3' with mScarlet; also called Chc1-mScarlet; ScCHC-mScarlet; not shown: mScarlet, C-terminal, kept

[5] = molecular target: T4, Chc-mScarlet Arrestin box mutant (Q195A, I197T, K251E) (Saccharomyces cerevisiae, UniProt P22137 1-1653, Q195A | I197T | K251E); assay: as above; details: partners not purified
T4 construct: Clathrin heavy chain, Saccharomyces cerevisiae, the ORF of CHC1 fused in the 3' with mScarlet, Arrestin box mutant; also called Arr mutant; source: S. cerevisiae MK100, mutated plasmid pRS315-5'UTR CHC-mScarlet, endogenous CHC1 knocked out, in living cells; not shown: mScarlet, C-terminal, kept

[6] = molecular target: B2; assay: native MS; ScChc-NTD 1.75 µM in 200 mM NH4AcO pH 9.0, Ent5.1 peptide up to 100 µM; details: both partners purified

Molecule: B2
binding result [2]: binds

B3: Ent2 endogenously tagged with mNeonGreen (Ent2-mNeonGreen) (natural protein, UniProt Q05785 1-613, looked up)
chain: MSKQFVRSAKNMMKGYSSTQVLVRDATANDSRTPSIDTLDDLAQRSYDSVDFFEIMDMLDKRLNDKGKYWRHVAKSLTVLDYLVRFGSENCVLWCRENFYVIKTLREFRHENESGFDEGQIIRVKAKELVSLLNDEERLREERSMNTRNRRANRAARPRPRRQRTRSNPHDSSPSYQDDLEKALEESRITAQEDEQRRRELAQYDDEDPDFQAALQLSKEEEELKQLQELQRLQKQQQSLSQFQAPLQQQQPQQQPAYYDIFGNPISQDEYLQYQYQQDQEQAMAQQRWLDQQQEQQQLAEQQYFQQQQQAAAAASALQQQQTAANMQQQQQQPADFQQPLPTGSNNPFSMDNLERQKQEQQHAQLQRQQEEARQQQEQLKLQQLQRQQQEEAQLHQKRQEEAQLQQQQAQLLQQQAQFQQQQPLKQTRTGNQSISDKYSDLNTLLATGTGIDTFGNTGEARIPAQHTKTGTFINSQGTGYKQVTNEPKNNPFLSNQYTGLPSTNIVPTQTGYGFGNQPQSPPTNSPQQNPTGISYSQPQQQQQPQQQPQYMQNFQQQQPQYAQNFQQQPQYTQNYQQQPQYIQPHQQQQQQQQQQQQQQGYTPDQGVSLIDL
notes: epsin Ent2, Saccharomyces cerevisiae, endogenous locus tagged with mNeonGreen; also called Ent2-WT-mNeonGreen; Ent2p; source: endogenously tagged, S. cerevisiae MK100, in living cells
FRET efficiency [3]: 6.1%
FRET efficiency [4]: 9.02%
FRET efficiency [5]: 6.7%

B4: Apl2.1 CBM peptide (SQDLLDLF) (peptide)
peptide: SQDLLDLF
notes: also called LLDLF peptide; source: synthetic peptide, bought: NovoProLabs
Kd [1]: ~245 µM

Continued, values first:

Kd (ScChc-NTD): 39.1 µM
Molecule: CC[C@H](C)[C@H](N)C(=O)N1CCC[C@H]1C(=O)N[C@@H](CC(=O)O)C(=O)N[C@@H](CC(C)C)C(=O)N[C@H](C(=O)N[C@@H](CC(=O)O)C(=O)N[C@@H](CC(C)C)C(=O)N[C@@H](CC(=O)O)C(=O)N[C@@H](CC(=O)O)C(=O)O)[C@@H](C)CC (single isomer, unassigned) [Ent5.1]

Kd [1]: ~598 µM
B1: Yap1801 CBM peptide (NLNLIDM) (peptide)
peptide: NLNLIDM
notes: source: synthetic peptide, bought: NovoProLabs

Kd [1]: ~311 µM
B5: Yap1802 CBM peptide (NPNLIDI) (peptide)
peptide: NPNLIDI
notes: as for B1

stoichiometry N [6]: 3
Kd [1]: ~34 µM
B6: Ent5.1 CBM peptide (IPDLIDLDD) (peptide)
peptide: IPDLIDLDD
notes: also called Ent5.1 LIDL motif; LIDL peptide; source: synthetic peptide, bought: NovoProLabs
